Laboratory results as given in the nanobody polyreactivity screen of Harvey et al. (2022).

Test: yeast display, Sf9 membrane polyspecificity reagent, FACS + sequencing; frameworks hold sequencing errors
How it was run: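 In a synthetic yeast display library (Saccharomyces cerevisiae BJ5465), nanobody expression was induced with galactose for 36–48 hours. FACS gates were set low and high (top ~1%) using anti-HA fluorescence for expression and streptavidin fluorescence for binding of the Sf9 membrane reagent. Each polyreactivity label is drawn from the gate of origin.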

Sequence | polyreactivity (PSR sort gate)
QVQLVESGGGLVQAGGSLPLSSAASGFTFYRNAMGWYRQVPGKERELVAAITTRGVTTYYADSVKGRFTIARDYAKNTVYVLMNCLKPVDTAVYYFAAKKSLIGDYWGQGTQVTVSS | high polyreactivity
QVQLVESVGGLVQAGGSLRLSCAASGRTFGRYAMGWYRQAPGKERELVAGISRSGDSTHYADSVKGRFTISRDNAKNTVYLQMNSLKPEDTAVYYCNKETPTIGARKYEYWGQGTQVTVSS | low polyreactivity
QVHLVESGGGLVQAGGSLRLSCAASGLIFRRYAMGWYRQAPGKERELVAVISSGGRTYYADSVKGRFTISRDNAKNTVYLQMNSLKPEDTAVYYCAARTRSYWGTYGSYHYDYWGQGTQVTVSS | high polyreactivity
QVQLVESGGGLVQAGGSLRLSCAASGSIFDTYAMGWYRQAPGKERELVATITRSGARTYYADSVKGRFTISRDNAKNTVYLQMNSLKPEDTAVYYCAALYYDDFGYEYDYWGQGTQVTVSS | low polyreactivity
QVQLVESGGGLVQAGGSLRLSCAASGNTFRSYVMGWYRQAPGKERELVAVITKSGGSTYYADSVKGRFTISRDNAKNTVYLQMNSLKPEDTAVYYCAADRPAYGVGYWGQGTQVTVSS | high polyreactivity
QVQLVESGGGLVQAGGSLRLSCAASGRIFAHNAMGWYRQAPGKERELVAAINSGGSTRYADSVKGRFTISRDNAKNTVYLQMNSLKPEDTAVYYCARGPKGYYFARYGYWGQGTQVTVSS | high polyreactivity
QVQLVESGGGLVQAGGSLRLSCAASGIIFPFYAMGWYRQAPGKERELVAAITSDGNTNYADSVKGRFTISRDNAKNTVYLQMNSLKPEDTAVYYCNAETQYGVLSWHSTRHDYWGQGTQVTVSS | low polyreactivity
QVQLVESGGGLVQAGGSLRLSCAASGFIFGNYAMGWYRPAPGKERELVATITRRGGRTYYADSVKGRFTISRDNAKNTVYLQMNSLKPEDTAVYYCNAGAYYLLSGQDDMDYWGQGTQVTVSS | high polyreactivity
QVQLVESGGGLVQAGGSLRLSCAASGRIFTFYAMGWYRQAPGKERELVAAITSGGSTYYADSVKGRFTISRDNAKKTVYLQMNSLKPEDTAVYYCNTYPGSRHGWYDYWGQVTQVTVSS | high polyreactivity
QDQLVESGGGLDQAGGSLRLSCAASGSTFQLYAMGWYRQAPGKERELVAAISGIGDSTYYADSVKGRFTISRDNAKNTVYLQMNSLKPEDTAVYYCDREFSDGLSGKFDYWGQGTQVTVSS | low polyreactivity
QVQLVESGGGLVQAGGSLRLSCAASGRTFGWSAMGWYRQAPGKERELVAAISSSGGSTYYADSVKGRFTISRDNAKNTVYLQMNSLKPEDTAVYYCAKESYRGGFDYWGQGTQVTVSS | high polyreactivity
QVQLVESGGGLVQAGGSLRLSCAASGFTFRWYAMGWYRQAPGKERELVAAITSDDNTYYADSVKGRFTISRDNAKNTVYLQMNSLKPEDTAVYYCAAEYADYWTYNMGYWGQGTQVTVSS | low polyreactivity
QVQLVESGGGLVQARGSLRLSCAASGSIIDYYAMGWYRQAPGKERELVAAINISGGDTYYADSVKGRFTISRDNAKNTVYLQMNSLKPEDTAVYYCNADRFYIDYSNTYDSIRDYWGQGTQVSVSS | low polyreactivity
QVQLVESGGGLVQAGGSLRLSCAASGRTFISYAMGWYRQAPGKERELVAAISGRGGSTYFADSVKGRFTISRDNAKNTVYLQMNSLKQEDTAVYYCAAEWFGVYRRYKYDYWGQGTQVTVSS | low polyreactivity
QVQLVESGGGLVQAGGSLRLSCAASGSTFTRNAMGLYRQAPGKERELVAAITSGGSTNYADSVKGRFTISRDNAKNTVYLQMNSLKPEDTAVYYCNAESPLSYTRHDSWGQGTQVTVSS | low polyreactivity
QFQLVESWGGLVQAGGSLRLSCAASGYIFGYVMGWYRQAPGKERELVAAITYSSGNTYYADSVKGRFTISRDNAKNTVYLQMNSLKPEDTAVYYCAKQAYYKGRLAYGYWGQATQVTVSS | high polyreactivity
QVQLVESGGCIVQAGGSLRLSCAASGLIFGPYAMGWYRQAPGKERELVAAISARGGSTYYADSVKGRFTISRDNAKNTVYLQMNSLKPEDTAVYYCAARQYSVNTHYGYNYWGQGTQVTVSS | high polyreactivity
QVQLVESGGGLVQAGGSLRLSCAASGITFGIYVMGCYRQAPGKEREFVATMSRSDDNTYYADSVKGRFTISRDNAKNTVYLQRNSLKPEDTAVYYCAADGVISAWYSSRDDYWGQGTQVTVSS | low polyreactivity
QVQLVESGGGLVQAGGSLRLSCAASGSISIRNAMGWYRQAPGKERELVAAISRGGSTYYADSVKGRFTISRDNAKNKVYLQMNSLKPEDTAVYYCNVLHLRRTAIMDYWGQGTQVTVSS | high polyreactivity
QVQLVESGGGLVQAGGSLRLSCASSGRIFGLYAMGWYRQAPGKERELVAAITLSGDGTDYADSVKGRFTISRDNAKNTVYLQMNSLKPEDTAVYYCAKVGQYWWNMDYWGQGTQVTVSS | low polyreactivity
QVQLVESGGGLVQAGGSLRLSCAASGFTFWTNAMGWYRQAPGKERELVAAITSSGGTTYYADSVKGRFTISRDNAKNTVYLQMNSLKPEDTAVYYCAAELGGYVASYYYPGYDYWGQGTQVTVSS | low polyreactivity
QVQHVESGGGLVQAGGSLRLSCAASGRIFYSNVMGWYRQAPGKERELVAAISGRTGGTYYADSEKGRFTISRDNAKNTVYLQMNSMKPEDTAVYFCAARVIYYYGSGPYDYWGQGTQVTVSS | low polyreactivity

Sequence | polyreactivity (PSR sort gate)
QDQLVESGGGLVQAGGSLRLSCAASGSTFGNYAMGWYRQAPGKERELVAAITSGGTTNYADSVKGRFTISRDNAKNTVYLQMNSLKPEDTAVYYCNAVGTFVRYSTDGRDGVTYDYWGHGTQVTVSS | low polyreactivity
QVQLVESGGGLVQAGGSLRLSCAASGIIFPVYAMGWFRQAPGKERELVATIDSGGGTYYADSVKGRFTISRDNANNTVYLQMNSLKPEDTAVYYCNASHPPKAELAHWGQGTQVTVSS | low polyreactivity
QVQLVESGGGLVQAGGSLRLSCAASGIIFDTYAMGWYRQAPGKERELVAAISRSGDTTYYADSVKGRFTISRDNAKNTVYLQMNSLKPEDTAVYYCYARQSRWDKYDYWGQGTQVTVSS | high polyreactivity
QVQLVESGGGLVQAGGSLRLSCAASGSTFLRNAMGWYREAPGKERELVAAISTRGGSTYYADSVKGRFTISRDNAKNTVNLQMNSLKPEDTADYYCAAVATRRYDYWGQGTQVTVSS | high polyreactivity
QVQLVESGGGLDQAGGSLRLSCAASGIIFSLYAMGSYRQAPGKERELVAAISASDGDTYYADSVKGRFTISRDNAKNTVYLQMNSLKPEDTAVYYCAADATYYLGYEAEYYYWGQGTQVTVSS | low polyreactivity
QVQLVESRGGLVQAGGSLRLSCAASGSIFYDNAMGWYRQAPWKEREFVAAISLRTGRTYYADSVKGRFTISRDNAKNTVYLQMNSLKPEDTAVFYCAARGYYGPKYYYWGQGTQVTVSS | high polyreactivity
QVHLVESGGGLVQAGGSLRLICAASGFTFDFYAMGWYRQAPGKERELVAAISKNDGTTYYADSVKGRFTISRDNAKNTVYLQMYSLKPEDTAVYYCAAESGYPVYTYVSSGDYWGQGTQVTVSS | low polyreactivity
QVQLVESGGGLVQAGGSLRLSCAASGSIFFYYAMGWYRQAPGKERELVAAINWSGVNTYYADSVKGRFTISRDNAKNTVYLQMNSLKPEDTAVYYFNAVVSLTSYGYLGYLFDYWGQGTLVTVSS | low polyreactivity
QVQLVESGGGLVQAGGSLRLSCAASGRSFTYYAMGWYRQAPGKERELVATISGSGGSTYYADSVKGRFTISRDNAKNTVYLQMNSLKPEDTAVYYCAATGFIFRGRVRAIPRRYNYWGQGTQVTVSS | high polyreactivity
QVQLVESGGGLVQAGGSLRLSCAASGRIFLYYAMGWYRQAPGKERELVAAITWSGGSTYYADSVKGRFTISRDNAKNTVYLQMNSLKPEDTAVYYCAADYLYGQTIYQVPSHYYYWGQGTQVTVSS | low polyreactivity
QVQLVESGGGLVQEGGSLRLSCAASGFSFERNAMGWDRQAPGKERELVATIPWSGTRTNYADSVKGRFTISRDNAKNTVYVQMNSLKPEDTAVYYCAVVVSAPSRESKSTVQMDYWGQGTQVTVSS | high polyreactivity
QVQLVESGGGLVQAGGSLRLSCAASGFTYGRYAMGWYRQAPGKERELVAVISWSGVSTYYADSVKGRFTISRDNAKNTVYLQMNSLKPEDTAVYYCNKRSYHYPYGYDYWGQGTQVTVSS | high polyreactivity
QVQLVESGGGLVQAGGSLRLSCAASGFSFTNYAMGWYRQAPGKERELVAAINRSGGRTYYADSVKGRFTISRDNAKNTVYLQMNSLKPEDTAVYYCAAYGRYYYIYDYWGQGTQVTVSS | high polyreactivity
QVQLVESGGGLVQAGGSLRLSCAASGRIFYAYAMGWYRQEPGKERELVASISGSGGSTYYADSVKGRFTISRDNAKNTVYLQMNRLKPEDTAVYYCAKRYPFYSSGLSTYNYWGQGTQVTVSS | high polyreactivity
QVQLVESGGGLVEAGGSLRLSCAASGRIFGRNAMGWYRQAPGKERELVAGISSGGTTDYADSVKGRFTISRDNAKNTVYLQMNSLKPEDTAVYYCNVGYAYDDQTYYLGESDYWGQGTQVTVSS | low polyreactivity
QVQLVESGGGLVQAGGSLRLSCAASGLIFYGNAMGWYRQAPWKERELVAAITGGGGNTYYADSVKGRFTISRDNAKITFFLQMISLKPEDTAVYYCASASSTAYVRYYYWGQGTQVTVSS | high polyreactivity
QVQLVESGGGLVQAGGSLRLSCAASGSTFFGYAMGWYRQAPGKERELVASITWSSGRTNYADSVKGRFTISRDNAKNTVFLQRYSVKPEETAVYYCAQVLDHQLYIDHWVRIYGYWGQGTQVTVSS | low polyreactivity
QVHLVESRGGLVQAGGSLRLSCAASGFIFRWYAMGCYRQAPGKERELVAAISSSSGSTYYADSVKGRFTISRDNAKNTVYLQMNSLKPEDTAVYYCAAESNRRFEGEYWGQGTQVTVSS | high polyreactivity
QVQLVESGGGLVQAGGSLRLSCAASGGILYYYAMGWYRQAPGKEREMVAAISSGGRTNYADSVKGRFTISRDNAMNTVYLQMNSLNPEDTAVYYCAARGATGFRRYGVTHYYYWGQGTQVNVSS | high polyreactivity
QVQLVESGGGLVQAGGSLRLSCAASGRIFYYYAMGWYRQAPGKERELVAAISSRGASTYYADSVKGRFTISRDNAKNTVYLQMNSLKPEDTAVYYCAASTPFRSTRYDYWGQGTQVTVSS | high polyreactivity
QVQLVESGGGLVQAGGSLRLSCAASGRIFPAYAMGWYRQSPGKERELVASIRRGGITYADSVKGRFTISRDNAKNTVSLQMTSLNPEDTAVYYCNAHYRGWGYHMDYWGQGTQVTGSS | low polyreactivity
